Assay results reported in patent US20260234280A1.

Legend:
[1] = molecular target: human BCMA and human GPRC5D, the dual targets expressed on NCI-H929 and RPMI8226 tumor cells; experiment: flow cytometry (FACS), RPMI8226 cells
[2] = molecular target: human BCMA and human GPRC5D, the dual targets expressed on NCI-H929 and RPMI8226 tumor cells; experiment: flow cytometry (FACS), NCI-H929 cells
[3] = molecular target: cynomolgus monkey BCMA (cyno-BCMA) (cynomolgus monkey); experiment: flow cytometry (FACS), cynomolgus monkey BCMA-CHOK1 cells
[4] = molecular target: human BCMA (human-BCMA) (human) (UniProt Q02223); experiment: flow cytometry (FACS), RPMI8226 cells
[5] = molecular target: human BCMA (human-BCMA) (human) (UniProt Q02223); experiment: flow cytometry (FACS), human BCMA-CHOK1 cells
[6] = molecular target: human BCMA recombinant protein (Acro, Cat. No. BCA-H522y) (human) (UniProt Q02223); experiment: SPR (Biacore), antibody captured by anti-human IgG (Fc) on CM5 chip, BCMA as analyte, 1:1 model
[7] = molecular target: cynomolgus monkey BCMA recombinant protein (Acro, Cat. No. BCA-C52H7) (cynomolgus monkey); experiment: as above
[8] = molecular target: human CD3 naturally expressed on Jurkat T lymphocytes and human PBMCs (human) (UniProt P07766); experiment: flow cytometry (FACS), Jurkat cells
[9] = molecular target: human GPRC5D (human-GPRC5D) (human) (UniProt Q9NZD1); experiment: flow cytometry (FACS), human GPRC5D-CHOK1 cells
[10] = molecular target: cynomolgus monkey CD3 recombinant protein (Acro, Cat. No. CDD-C52W4) (cynomolgus monkey) (UniProt Q95LI5); experiment: SPR (Biacore), CD3 immobilised on CM5 chip, antibody as analyte, 1:1 model
[11] = molecular target: human CD3 recombinant protein (Acro, Cat. No. CDD-H52W1) (human) (UniProt P07766); experiment: as above
[12] = molecular target: human CD3 naturally expressed on Jurkat T lymphocytes and human PBMCs (human) (UniProt P07766); experiment: flow cytometry (FACS), human PBMCs
[13] = molecular target: human BCMA (human-BCMA) (human) (UniProt Q02223); experiment: flow cytometry (FACS), NCI-H929 cells
[14] = molecular target: cynomolgus monkey CD3 naturally expressed on cyno PBMCs (cynomolgus monkey) (UniProt Q95LI5); experiment: flow cytometry (FACS), cyno PBMCs
[15] = molecular target: human BCMA (human-BCMA) (human) (UniProt Q02223); experiment: cell-based or functional assay
soluble BCMA = soluble BCMA (UniProt Q02223); experiment: cell-based or functional assay
Chain of soluble BCMA (Q02223 1-54 limits assumed): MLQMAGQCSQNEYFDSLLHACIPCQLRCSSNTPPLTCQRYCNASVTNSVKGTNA

Chain of human CD3 naturally expressed on Jurkat T lymphocytes and human PBMCs (human) (P07766 23-207): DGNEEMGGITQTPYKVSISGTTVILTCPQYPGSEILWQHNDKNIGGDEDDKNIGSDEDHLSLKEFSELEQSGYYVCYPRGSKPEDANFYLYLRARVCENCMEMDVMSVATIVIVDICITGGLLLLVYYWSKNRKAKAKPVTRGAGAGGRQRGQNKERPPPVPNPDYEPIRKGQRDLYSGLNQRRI
Chain of human CD3 recombinant protein (Acro, Cat. No. CDD-H52W1) (human) (P07766 23-126): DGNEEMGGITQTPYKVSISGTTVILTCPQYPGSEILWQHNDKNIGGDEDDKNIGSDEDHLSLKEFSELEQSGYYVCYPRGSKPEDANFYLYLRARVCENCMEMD
Chain of cynomolgus monkey CD3 recombinant protein (Acro, Cat. No. CDD-C52W4) (cynomolgus monkey) (Q95LI5 22-117): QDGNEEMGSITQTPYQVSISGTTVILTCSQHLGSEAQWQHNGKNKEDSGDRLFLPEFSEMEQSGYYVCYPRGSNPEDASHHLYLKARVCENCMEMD
Chain of human BCMA (human-BCMA) (human) (Q02223 whole entry): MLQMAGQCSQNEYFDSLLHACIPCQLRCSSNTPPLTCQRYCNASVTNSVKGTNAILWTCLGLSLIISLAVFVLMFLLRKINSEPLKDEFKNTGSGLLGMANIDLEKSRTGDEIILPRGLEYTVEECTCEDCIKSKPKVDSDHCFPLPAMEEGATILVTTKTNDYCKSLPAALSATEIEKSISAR
Chain of human BCMA recombinant protein (Acro, Cat. No. BCA-H522y) (human) (Q02223 1-54 limits assumed): as the sequence (Q02223 1-54 limits assumed) above
Chain of cynomolgus monkey CD3 naturally expressed on cyno PBMCs (cynomolgus monkey) (Q95LI5 22-198): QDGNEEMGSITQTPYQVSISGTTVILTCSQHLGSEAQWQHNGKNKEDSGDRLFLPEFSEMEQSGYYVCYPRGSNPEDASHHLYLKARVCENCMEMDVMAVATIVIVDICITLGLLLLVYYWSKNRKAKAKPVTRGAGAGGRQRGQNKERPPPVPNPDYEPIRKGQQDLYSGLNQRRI
Chain of cynomolgus monkey BCMA (cyno-BCMA) (cynomolgus monkey) (Q02223 other isoform, or with tags, fused parts or gaps): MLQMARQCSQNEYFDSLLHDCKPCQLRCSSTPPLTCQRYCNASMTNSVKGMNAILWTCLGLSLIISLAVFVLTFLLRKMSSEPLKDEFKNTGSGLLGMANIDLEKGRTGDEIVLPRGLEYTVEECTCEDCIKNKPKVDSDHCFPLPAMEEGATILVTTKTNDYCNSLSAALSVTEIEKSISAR
Chain of human GPRC5D (human-GPRC5D) (human) (Q9NZD1 whole entry): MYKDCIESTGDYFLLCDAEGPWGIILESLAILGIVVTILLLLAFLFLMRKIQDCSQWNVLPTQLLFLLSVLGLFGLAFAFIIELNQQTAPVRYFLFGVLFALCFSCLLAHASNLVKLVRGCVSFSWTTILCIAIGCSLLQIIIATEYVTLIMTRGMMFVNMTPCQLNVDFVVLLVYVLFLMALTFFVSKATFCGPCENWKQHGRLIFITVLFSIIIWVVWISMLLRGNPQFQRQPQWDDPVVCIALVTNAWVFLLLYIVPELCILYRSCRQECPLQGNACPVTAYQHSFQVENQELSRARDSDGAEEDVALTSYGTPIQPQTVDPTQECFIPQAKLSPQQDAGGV

hIgG1 LALA isotype (Biointron, Cat. No. B109802) (antibody)
Top MFI [1]: 112 MFI | Top MFI [2]: 104 MFI

Teclistamab analogue (BCMA/CD3), BCMAxCD3 bispecific antibody from Janssen
EC50 [3]: 15.3 nM | Top MFI [3]: 1770 MFI | EC50 [4]: 1.17 nM | Top MFI [4]: 169 MFI | EC50 [5]: 2.63 nM | Top MFI [5]: 2280 MFI | Kd [6]: 0.379 nM | koff [6]: 0.00135 s⁻¹ | kon [6]: 3.55e+06 M⁻¹ s⁻¹ | Kd [7]: 8.49 nM | koff [7]: 0.0235 s⁻¹ | kon [7]: 2.77e+06 M⁻¹ s⁻¹ | EC50 [8]: 3.22 nM | Top MFI [8]: 825 MFI | Top MFI [9]: 160 MFI | Kd [10]: 21.1 nM | koff [10]: 0.00336 s⁻¹ | kon [10]: 159000 M⁻¹ s⁻¹ | Kd [11]: 21 nM | koff [11]: 0.00522 s⁻¹ | kon [11]: 248000 M⁻¹ s⁻¹ | EC50 [12]: 6.06 nM | Top MFI [12]: 672 MFI | EC50 [13]: 2.43 nM | Top MFI [13]: 669 MFI | EC50 [14]: 55.8 nM | Top MFI [14]: 2060 MFI | TDCC Cytotoxicity (max) on NCI-H929 with 0 ug/ml BCMA [15]: 40.9 | TDCC EC50 (nM) on NCI-H929 with 0 ug/ml BCMA [15]: 0.115 nM | Ratio (EC50), TDCC on NCI-H929 with 2.5 ug/ml against 0 ug/ml BCMA (soluble BCMA): 21 | TDCC Cytotoxicity (max) on NCI-H929 with 2.5 ug/ml BCMA (soluble BCMA): 53.9 | TDCC EC50 (nM) on NCI-H929 with 2.5 ug/ml BCMA (soluble BCMA): 2.36 nM | fold change of TDCC EC50 on NCI-H929 in the presence of 2500 ng/ml soluble BCMA (soluble BCMA): 25 fold

Talquetamab analogue (GPRC5D/CD3), GPRC5DxCD3 bispecific antibody from Janssen
Kd [10]: 22.2 nM | koff [10]: 0.00379 s⁻¹ | kon [10]: 170000 M⁻¹ s⁻¹ | Kd [11]: 18 nM | koff [11]: 0.00201 s⁻¹ | kon [11]: 112000 M⁻¹ s⁻¹
